Substrate in data set [1]: C[C@]12CC(=O)[C@H]3[C@@H](CCC4=CC(=O)CC[C@@]43C)[C@@H]1CC[C@@H]2C(=O)CO
The experiment in a line: reduction kinetics (Km) with recombinant enzyme, HPLC. It counts as biochemical, Mus musculus. As to conditions: NADPH.

Substrate in data set [2]: C[C@]12C[C@H](O)[C@H]3[C@@H](CCC4=CC(=O)CC[C@@]43C)[C@@H]1CC[C@@H]2C(=O)CO
Nature of the data set: oxidation kinetics (Km) with recombinant enzyme, HPLC. It counts as biochemical, Mus musculus. As to conditions: NADP+.

In publication PMC3694296, “11β-Hydroxysteroid dehydrogenase type 1 contributes to the balance between 7-keto- and 7-hydroxy-oxysterols in vivo” (Biochemical Pharmacology, 2013) one finds Km, Vmax and Vmax/Km data, which are given here for one protein.

B1: 11β-hydroxysteroid dehydrogenase type 1 (murine 11βHSD1, m11βHSD1) (Mus musculus) (protein)
chain: NEEFRPEMLQGKKVIVTGASKGIGREMAYHLSKMGAHVVLTARSEEGLQKVVSRCLELGAASAHYIAGTMEDMTFAEQFIVKAGKLMGGLDMLILNHITQTSLSLFHDDIHSVRRVMEVNFLSYVVMSTAALPMLKQSNGSIAVISSLAGKMTQPMIAPYSASKFALDGFFSTIRTELYITKVNVSITLCVLGLIDTETAMKEISGIINAQASPKEECALEIIKGTALRKSEVYYDKSPLTPILLGNPGRKIMEFFSLRYYNKDMFVSN
notes: truncated form of recombinant m11βHSD1 protein (N23Δ)
Usually Km stands for the concentration of substrate that gives half-maximal velocity. B1: in data set [1], the Km was found to be 0.20 ± 0.25 µM, the Vmax worked out at 8.56 ± 4.06 pmol/µg/min and the Vmax/Km was found to be 42.8 L/ug/min x 10^-6. In data set [2], the Km was 1.78 ± 0.56 µM, the Vmax came to 4.82 ± 0.65 pmol/µg/min and the Vmax/Km is on record as 2.7 L/ug/min x 10^-6.
